Data on 1 molecule can be found in US6486303 (UNIVERSITY OF MEDICINE AND DENTISTRY OF NEW JERSEY, dated 2002).

The target of this assay is T1, rat LH receptor (rat, UniProt P16235 27-700).
T1 construct: whole, on cells; also called LH receptors
In words: not described.

T1 sequence (P16235 27-700): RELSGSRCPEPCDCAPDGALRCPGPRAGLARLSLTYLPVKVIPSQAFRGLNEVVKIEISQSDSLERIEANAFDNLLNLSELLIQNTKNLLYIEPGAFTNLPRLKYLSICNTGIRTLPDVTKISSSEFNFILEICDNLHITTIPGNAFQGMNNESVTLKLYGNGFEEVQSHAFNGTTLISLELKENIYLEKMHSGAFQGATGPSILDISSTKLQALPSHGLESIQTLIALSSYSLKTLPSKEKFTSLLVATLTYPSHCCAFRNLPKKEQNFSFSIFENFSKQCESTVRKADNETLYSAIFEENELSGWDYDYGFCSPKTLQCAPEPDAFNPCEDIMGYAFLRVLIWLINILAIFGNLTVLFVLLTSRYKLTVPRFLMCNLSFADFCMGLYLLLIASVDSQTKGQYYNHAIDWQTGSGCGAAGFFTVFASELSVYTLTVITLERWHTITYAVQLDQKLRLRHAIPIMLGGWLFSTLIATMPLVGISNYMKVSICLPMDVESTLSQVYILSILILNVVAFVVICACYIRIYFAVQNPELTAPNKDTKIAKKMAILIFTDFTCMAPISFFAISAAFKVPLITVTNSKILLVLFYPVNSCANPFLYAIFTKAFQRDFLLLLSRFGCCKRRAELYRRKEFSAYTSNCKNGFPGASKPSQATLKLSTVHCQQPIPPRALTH

B1: Fos-αδ52 + Jun-hCGβ′ heterodimer (ligand)
alpha: not shown
beta: SCGGRIARLEEKVKTLKAQNSELASTANMLREQVAQLKQKVMGLRPRCRPINATLAVEKEGCPVCITVNTTICAGYCPTMTRVLQGVLPALPQVVCNYRDVRFESIRLPGCPRGVNPVVSYAVALSCQCALCRRSTTDCGGPKDHPLTCDDPRFQDSSSSKAPPPSLPSPSRLPGPSDTPILPQ
modifications: The Cys of the N-terminal SCGG in each chain is meant to form an intersubunit disulfide.
notes: Secreted from co-transfected COS-7 cells; also called Fos-Jun hCGαδ2; copies: 1 + 1
In the case of B1, the binding result is given as “binds”.
